Test systems include TALEN 102268; TALEN 102257; TALEN 102259; TALEN 102254; TALEN 102256; TALEN 102249; TALEN 102267; TALEN 102265; TALEN 102252; TALEN 102260; TALEN 102258; TALEN 102250; TALEN 102255; TALEN 102253.
Assay in all cases: cell_activity
A further data set deals with TALEN 102264. Conditions: C63, with 102261, HepG2-C3a.
For another data set, the system named is TALEN 102271. As to conditions: C17, with 102269, HepG2-C3a.
Another data set relates to ZFN SBS35428. Conditions: Cel-I, paired with 35480.
The subject of another data set is ZFN SBS35426. Conditions: Cel-I, paired with 35480.
A further data set concerns ZFN SBS33940. Conditions: HepG2-C3a, paired with 34931.
A further data set relates to TALEN 102263. Conditions: C63, with 102261, HepG2-C3a.
The test system of the next data set is TALEN 102269. Conditions: C17, with 102271, HepG2-C3a.
In the next data set the test system is ZFN SBS35364. Conditions: Cel-I, paired with 35394.
The next data set has as its system ZFN SBS35379. As to conditions: Cel-I, paired with 35393.
The next data set has as its system ZFN SBS35370. As to conditions: Cel-I, paired with 35405.
The next data set deals with ZFN SBS35361. Conditions: Cel-I, paired with 35396; 31 and 29% in HepG2-C3a (Table 10).
A further data set deals with TALEN 102251. As to conditions: C17, with 102249, HepG2-C3a.
Another data set deals with ZFN SBS35399. As to conditions: Cel-I, paired with 35361.
Another data set concerns ZFN SBS35398. As to conditions: Cel-I, paired with 35361.
The next data set deals with ZFN SBS35393. As to conditions: Cel-I, paired with 35370.
The test system of a further data set is ZFN SBS35394. As to conditions: Cel-I, paired with 35364.
A further data set has as its system ZFN SBS35405. Conditions: Cel-I, paired with 35370.
The test system of a further data set is ZFN SBS35396. Conditions: Cel-I, paired with 35361; 31 and 29% in HepG2-C3a (Table 10).
The test system of the next data set is ZFN SBS35458. As to conditions: Cel-I, paired with 35428; 10 and 7% with 35426 in HepG2-C3a (Table 10).
A further data set has as its system ZFN SBS35480. Conditions: Cel-I, paired with 35426.
A further data set concerns TALEN 102262. Conditions: C63, with 102264, HepG2-C3a.
Another data set deals with ZFN SBS34931. As to conditions: HepG2-C3a, paired with 33940.
For another data set, the system named is TALEN 102266. Conditions: C17, with 102268, HepG2-C3a.
In a further data set the test system is TALEN 102261. Conditions: C63, with 102264, HepG2-C3a.

The sequence “ATCTAATACTCTTTTAGTGTC (double strand) [102264 site]” displayed an activity (% modification) in the data set on TALEN 102264 of 22.

Regarding “ATATTGGGCTCTGATTCCT (double strand) [102268 site]”, the activity (% modification) turned out to be 10 with TALEN 102268 (C17, with 102266, HepG2-C3a) and 7.9 with TALEN 102268 (C63, with 102265, HepG2-C3a).

Regarding “TTATGCATTTGTTTCAAAA (double strand) [102271 site]”, in the data set on TALEN 102271, the activity (% modification) worked out at 14.

Turning to “CTATGCTTTATTTAAAAAC (double strand) [102257 site]”, the activity (% modification) in the data set on TALEN 102257 (C17, with 102259, HepG2-C3a) came to 18; in the data set on TALEN 102257 (C63, with 102259, HepG2-C3a), 15.

Consider “ATTTATGAGATCAACAGCACA (double strand) [102259 site]”, for which the activity (% modification) in the data set with TALEN 102259 (C17, with 102257, HepG2-C3a) was 18; in the data set on TALEN 102259 (C63, with 102257, HepG2-C3a), 15.

For “TTGTGGTTTTTAAATAAAGCATAGTGCA (double strand) [locus 3 left site]”, the results for the activity (% mutated targets) in the data set on ZFN SBS35428 and with ZFN SBS35426 were 6 and 7, respectively.

Turning to “ATTGAATTCATAACTATCCCA (double strand) [102254 site]”, the activity (% modification) in the data set with TALEN 102254 (C17, with 102255, HepG2-C3a) came to 43; in the data set with TALEN 102254 (C63, with 102256, HepG2-C3a) it was 16.

As for “CTGTTGATAGACACTAAAAGAGTATTAG (double strand) [33940 site]”, in the data set on ZFN SBS33940, the activity (% modification) was 7.3.

As to “CTAATACTCTTTTAGTGTCT (double strand) [102263 site]”, the activity (% modification) with TALEN 102263 was determined as 16.

Sequence “TTTTTCTGTAGGAATCAGA (double strand) [102269 site]” yielded an activity (% modification) in the data set on TALEN 102269 of 14.

With “ATAAAGCATAGTGCAATGG (double strand) [102256 site]”, the activity (% modification) with TALEN 102256 (C17, with 102254, HepG2-C3a) was 28; in the data set on TALEN 102256 (C63, with 102253, HepG2-C3a), 23.

Turning to “TTTGGGATAGTTATGAATTCAATCTTCA (double strand) [locus 2 left site]”, the activity (% mutated targets) with ZFN SBS35364 was found to be 24; in the data set with ZFN SBS35379 it was 21; in the data set with ZFN SBS35370 it was 23; in the data set with ZFN SBS35361, 25.

Turning to “GTTGAAGATTGAATTCATA (double strand) [102249 site]”, the activity (% modification) in the data set with TALEN 102249 (C17, with 102251, HepG2-C3a) came out at 15; in the data set with TALEN 102249 (C63, with 102252, HepG2-C3a), 8.3.

Regarding “ATATTGGGCTCTGATTCCTAC (double strand) [102267 site]”, the activity (% modification) in the data set with TALEN 102267 (C17, with 102265, HepG2-C3a) came out at 47; in the data set on TALEN 102267 (C63, with 102265, HepG2-C3a) it was 9.8.

Regarding “ATAATTGAACATCATCCTG (double strand) [102265 site]”, the activity (% modification) in the data set on TALEN 102265 (C17, with 102267, HepG2-C3a) stood at 47; with TALEN 102265 (C63, with 102267, HepG2-C3a) it was 9.8.

“GTGCAATGGATAGGTCTTT (double strand) [102251 site]” gave an activity (% modification) in the data set on TALEN 102251 of 15.

Turning to “ATAGTGCAATGGATAGGTC (double strand) [102252 site]”, the activity (% modification) with TALEN 102252 (C17, with 102250, HepG2-C3a) was 32; in the data set with TALEN 102252 (C63, with 102249, HepG2-C3a), 8.3.

Take “CTATTTATGAGATCAACAGCA (double strand) [102260 site]”: the activity (% modification) is 24 with TALEN 102260 (C17, with 102258, HepG2-C3a) and 13 with TALEN 102260 (C63, with 102257, HepG2-C3a).

With “CTATGCTTTATTTAAAAACCA (double strand) [102258 site]”, the activity (% modification) amounted to 24 in the data set with TALEN 102258 (C17, with 102260, HepG2-C3a) and 11 in the data set with TALEN 102258 (C63, with 102260, HepG2-C3a).

“CCTATCCATTGCACTATGCTTTATTTAA (double strand) [locus 2 right site]”: the activity (% mutated targets) in the data set on ZFN SBS35399 was 23; in the data set on ZFN SBS35398, 22; in the data set with ZFN SBS35393, 21; in the data set with ZFN SBS35394, 24; with ZFN SBS35405, 23; in the data set with ZFN SBS35396, 25.

“CCTGTGCTGTTGATCTCATAAATAGAAC (double strand) [locus 3 right site]”: the values for the activity (% mutated targets) with ZFN SBS35458 and with ZFN SBS35480 were 4.9 and 7, respectively.

As to “ATTTTAGTCTGTCTTCTTG (double strand) [102262 site]”, in the data set on TALEN 102262, the activity (% modification) came out at 17.

For the sequence “GTTGAAGATTGAATTCATAAC (double strand) [102250 site]”, the activity (% modification) with TALEN 102250 (C17, with 102252, HepG2-C3a) turned out to be 32; in the data set with TALEN 102250 (C63, with 102252, HepG2-C3a) it was 8.

As to “ATAAAGCATAGTGCAATGGAT (double strand) [102255 site]”, the activity (% modification) with TALEN 102255 (C17, with 102254, HepG2-C3a) was determined as 43; in the data set with TALEN 102255 (C63, with 102253, HepG2-C3a), 21.

With “ATTGAATTCATAACTATCC (double strand) [102253 site]”, the activity (% modification) in the data set on TALEN 102253 (C17, with 102255, HepG2-C3a) was determined as 38; in the data set on TALEN 102253 (C63, with 102256, HepG2-C3a), 23.

In the data set on ZFN SBS34931, “ACCAAGAAGACAGACTAAAATGAAAATA (double strand) [34931 site]” returned an activity (% modification) of 7.3.

As for “ATAATTGAACATCATCCTGAG (double strand) [102266 site]”, the activity (% modification) with TALEN 102266 came to 10.

On to “TTCATTTTAGTCTGTCTTCTT (double strand) [102261 site]”, for which the activity (% modification) with TALEN 102261 is 22.

The record behind these values is US20140017212.
